Here are results for 12 molecules from patent US20220064272A1 (TAUC3 BIOLOGICS, published 2022).

Values joined by “and” are separate entries in the source; they are usually repeats but may differ in a detail not shown here. Identical values can stand only once.

In assay [1] the target is T1, TauC3 (C-terminally truncated tau fragment ending at aspartate 421 of htau40) (human, UniProt P10636 1-738).
T1 construct: Generated and purified by Genscript; also called Human TauC3; recombinant TauC3 protein
T1 sequence (P10636 other isoform, or with tags, fused parts or gaps): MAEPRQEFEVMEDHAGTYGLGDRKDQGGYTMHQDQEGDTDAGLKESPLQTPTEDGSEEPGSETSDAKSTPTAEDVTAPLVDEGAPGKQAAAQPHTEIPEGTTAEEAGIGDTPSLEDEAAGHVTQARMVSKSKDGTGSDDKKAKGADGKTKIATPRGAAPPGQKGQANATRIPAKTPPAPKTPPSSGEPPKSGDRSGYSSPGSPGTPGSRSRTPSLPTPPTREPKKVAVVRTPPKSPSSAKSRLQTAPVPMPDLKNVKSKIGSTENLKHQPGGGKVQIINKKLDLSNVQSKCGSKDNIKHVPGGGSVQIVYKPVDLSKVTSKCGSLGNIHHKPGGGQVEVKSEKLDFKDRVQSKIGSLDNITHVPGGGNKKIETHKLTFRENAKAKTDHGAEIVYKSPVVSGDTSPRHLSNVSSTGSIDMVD
Kind of assay: binding ELISA on coated TauC3, OD650. The method in brief:
(§1)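 TauC3 antigen, made and purified by Genscript, was coated for a binding ELISA. The antibodies tested were chimeric or humanized IgG4κ expressed in ExpiCHO cells. Binding was recorded as absorbance at 650 nm, and EC50 came from the concentration-response of each antibody.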

For assay [2], the target named is T1, TauC3 (C-terminally truncated tau …). In words: binding ELISA on coated TauC3, OD650. The method in brief:
as §1
The source holds these as a separate data set. A general note: An ELISA detects its analyte on a solid surface through an enzyme-linked reagent.

The target is the same in assay [3]. In words: binding ELISA on coated TauC3, OD650; left table (HC variants). The essentials: as §1
Assay [4] shares this target. In words: binding ELISA on coated TauC3, OD650. The essentials: as §1
This is another data set of the same source.

The target is the same in assay [5]. In words: Biacore kinetics, TauC3 amine-coupled on CM5, antibody series, 1:1 global fit. From the text: To determine the affinity of the binding interactions, a biacore kinetic assay was developed which involved immobilizing TauC3 on a CM5 chip via amine coupling and injecting a concentration series of the respective antibody over it.
In general terms: Surface plasmon resonance follows binding to a sensor surface in real time, without labels.

Assay [6] shares this target. In words: Biacore off-rate ranking, TauC3 amine-coupled on CM5, one antibody concentration; one-phase exponential decay fit. Here is the method:
(§2) To further evaluate the binding data observed on the Octet, an off-rate ranking experiment was performed on the Biacore 200 instrument. Biacore offers greater selectivity than the Octet and facilitated the immobilization of TauC3 onto a CM5 chip via amine coupling which stabilizes the antigen. This produces higher quality data with stable baselines and good reproducible responses. Once TauC3 is immobilized, one concentration (5 nM) of antibody is added, followed by a dissociation and regeneration step (Section 8.20). The off-rates were fitted using a two-phase decay model (FIG. 25B) or a one phase decay fitting only the second off-rate (FIG. 25A). The candidates were then ranked based on the off-rates obtained using the fits and compared. The data agreed with the Octet results (albeit with a different ranking order), highlighting Tau01 HMKM, HMKO, HMKP, HMKN and HMKE as the humanized variants with the slowest off-rates. The lack of binding of FL Tau to chimeric and a humanized candidate was also confirmed by Biacore by loading the antibody onto a Protein G chip and adding 250 nM FL Tau.

Assay [7] has the same target. Kind of assay: Biacore off-rate ranking, TauC3 amine-coupled on CM5, one antibody concentration; two-phase decay fit, slow phase. Set-up: unit not given here. On the procedure: as §2
In assay [8] the target is T2, full length Tau (2N4R, htau40) (human, UniProt P10636 1-758).
T2 construct: Generated and purified by Genscript; also called FL Tau; FLT
T2 sequence (P10636 other isoform, or with tags, fused parts or gaps limits assumed): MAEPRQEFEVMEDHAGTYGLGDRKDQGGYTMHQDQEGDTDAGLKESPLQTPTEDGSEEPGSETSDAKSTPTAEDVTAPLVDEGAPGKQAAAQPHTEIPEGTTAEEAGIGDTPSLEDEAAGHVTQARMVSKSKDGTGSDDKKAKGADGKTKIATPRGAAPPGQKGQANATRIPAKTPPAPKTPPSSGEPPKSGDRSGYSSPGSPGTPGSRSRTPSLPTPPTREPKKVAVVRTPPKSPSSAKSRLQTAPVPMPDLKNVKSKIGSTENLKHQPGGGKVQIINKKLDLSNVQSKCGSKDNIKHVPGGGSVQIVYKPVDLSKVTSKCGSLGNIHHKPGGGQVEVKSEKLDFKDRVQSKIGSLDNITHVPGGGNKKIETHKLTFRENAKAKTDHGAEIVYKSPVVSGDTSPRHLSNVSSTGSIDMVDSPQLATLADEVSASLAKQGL
Kind of assay: Octet, antibody on Protein G sensor, FL Tau in solution. The essentials: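 Antibody loaded on Protein G biosensors was tested by Bio-Layer Interferometry (OctetRed96) for binding to purified full-length tau in solution. The tau was made and purified by Genscript. Full-length tau was applied at 500 nM. The result is the binding signal response in nm.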
In general terms: BLI is a label-free optical method that tracks binding on a fibre tip over time.

In assay [9] the target is T1, TauC3 (C-terminally truncated tau …). In words: binding ELISA on TauC3 after 21 days at 37 C in PBS or mouse, human, cynomolgus serum, with non-incubated control. Here is the method:
Purified samples of the chimeric and humanized antibodies were incubated in mouse, human and cynomolgus serum for 21 days. The binding of the Tau01 HMKE, HMKM, HMKN, HMKO, HMKP candidate antibodies which had been incubated in the 3 different serums were compared with an antibody incubated in PBS and a 4° C. positive control sample by binding ELISA to TauC3 (FIG. 37). The Tau01 HMKE, HMKM, HMKN, HMKO, HMKP candidate antibodies retained their binding capability after being incubated in mouse, human and cynomolgus serum.

Assay [10] has the same target. In words: binding ELISA on coated TauC3, OD650; right table (HM variants). The essentials:
as §1

Assay [11] has the same target. In words: SPR (Biacore) kinetics, TauC3 amine-coupled on CM5, 1:1 global fit. The method in brief:
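Each purified antibody was injected at a series of concentrations over a CM5 chip carrying amine-coupled purified antigen, with readout by Biacore surface plasmon resonance. A global fit gave Kd together with the association and dissociation rates. The fit model was 1:1.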

Assay [12] shares this target. Kind of assay: binding ELISA on coated TauC3, OD650. The method in brief: as §1
The source holds these as a separate data set.

B1: Tau01 HCKA (antibody, V domains shown)
VH: LVQLVESGGGLVQPGGSLKLSCAASGFTFNTYAMNWVRQASGKGLEWVGRIRSKSNNYATYYAASVKGRFTISRDDSKSMAYLQMDSLKTEDTAVYYCVGGGDFWGQGTLVTVSS
VL: DIQMTQSPSSLSASVGDRVTITCRASQEISVYLGWYQQKPGKAPKRLIYGAFKLQSGVPSRFSGSRSGTEFTLTISSLQPEDFATYYCLQYVRYPWTFGGGTKVEIK
notes: human IgG4 kappa (HuG4K)
In general, EC50 refers to the concentration needed to bring the measured effect to its halfway point. Regarding B1, the results for the EC50 in [1], in assay [2] and in assay [3] were 6.45 nM, 0.959 nM and 1.52 nM, respectively.

B2: Tau01 HOKB (antibody, V domains shown)
VH: LVQVVESGGGLVQPGGSLKLSCAASGFTFNTYAMNWVRQASGKGLEWVARIRSKSNNYATYYAASVKGRFTISRDDSKSMAYLQMDSLKTEDTAVYYCVGGGDFWGQGTLVTVSS
VL: DIQMTQSPSSLSASVGDRVTITCRASQEISVYLSWFQQKPGKAIKRLIYGAFTLQSGVPSRFSGSRSGSEYTLTISSLQPEDFATYYCLQYVRYPWTFGGGTKVEIK
notes: human IgG4 kappa (HuG4K)
Regarding B2, the midpoint of the response in assay [4], the EC50, lay at 0.51 nM.

B3: Tau01 HMKN HuG4k (antibody, V domains shown)
VH: LVQLVESGGGLVQPGGSLKLSCAASGFTFNTYAMNWVRQASGKGLEWVARIRSKSNNYATYYAASVKGRFTISRDDSKSMAYLQMDSLKTEDTAVYYCVGGGDFWGQGTLVTVSS
VL: DIQMTQSPSSLSASVGDRVTITCRASQEISVYLGWYQQKPGKAPKRLIYGAFTLQSGVPSRFSGSRSGTEYTLTISSLQPEDFATYYCLQYVRYPWTFGGGTKVEIK
notes: human IgG4 kappa (HuG4K)
As usually defined, the Kd is the concentration at which binding is half-saturated. The koff is a measure of how fast the partners let go of each other. Broadly, the EC50 (read off the curve) is the concentration needed to bring the measured effect to its halfway point. In general, kon refers to the rate constant with which the complex forms. B3 came in with a Kd in assay [5] of 0.0249 nM. The same molecule gave a koff in assay [6] of 0.000878 s⁻¹. Moreover, in assay [7], the Kslow was 0.000823. Also, the binding result in [8] was “no binding”. Also, in assay [9], the “EC50 (read off the curve)” value was ~0.5 nM. The response in assay [10] was half-maximal at 0.624 nM (EC50). In assay [11], this molecule came in with a Kd of 0.025 nM, a koff of 0.0015 s⁻¹ and an association rate constant (kon) of 6.03e+07 M⁻¹ s⁻¹.

B4: Tau01 HOKG (antibody, V domains shown)
VH: LVQVVESGGGLVQPGGSLKLSCAASGFTFNTYAMNWVRQASGKGLEWVARIRSKSNNYATYYAASVKGRFTISRDDSKSMAYLQMDSLKTEDTAVYYCVGGGDFWGQGTLVTVSS
VL: DIQMTQSPSSLSASVGDRVTITCRASQEISVYLGWYQQKPGKAPKRLIYGAFTLQSGVPSRFSGSRSGTEFTLTISSLQPEDFATYYCLQYVRYPWTFGGGTKVEIK
notes: human IgG4 kappa (HuG4K)
For B4, the EC50 in [4] was determined as 0.604 nM.

B5: Tau01 HNKI (antibody, V domains shown)
VH: LVQVVESGGGLVQPGGSLKLSCAASGFTFNTYAMNWVRQASGKGLEWVGRIRSKSNNYATYYAASVKGRFTISRDDSKSMAYLQMDSLKTEDTAVYYCVGGGDFWGQGTLVTVSS
VL: DIQMTQSPSSLSASVGDRVTITCRASQEISVYLGWYQQKPGKAPKRLIYGAFKLQSGVPSRFSGSRSGTEYTLTISSLQPEDFATYYCLQYVRYPWTFGGGTKVEIK
notes: human IgG4 kappa (HuG4K)
The molecule B5 showed a half-maximal effective concentration (EC50) in assay [12] of 0.765 nM.

B6: Tau01 HOKJ (antibody, V domains shown)
VH: LVQVVESGGGLVQPGGSLKLSCAASGFTFNTYAMNWVRQASGKGLEWVARIRSKSNNYATYYAASVKGRFTISRDDSKSMAYLQMDSLKTEDTAVYYCVGGGDFWGQGTLVTVSS
VL: DIQMTQSPSSLSASVGDRVTITCRASQEISVYLGWYQQKPGKAPKRLIYGAFSLQSGVPSRFSGSRSGTEFTLTISSLQPEDFATYYCLQYVRYPWTFGGGTKVEIK
notes: human IgG4 kappa (HuG4K)
On to B6, for which the EC50 in assay [4] came out at 0.556 nM.

B7: Tau01 HOKI (antibody, V domains shown)
VH: LVQVVESGGGLVQPGGSLKLSCAASGFTFNTYAMNWVRQASGKGLEWVARIRSKSNNYATYYAASVKGRFTISRDDSKSMAYLQMDSLKTEDTAVYYCVGGGDFWGQGTLVTVSS
VL: DIQMTQSPSSLSASVGDRVTITCRASQEISVYLGWYQQKPGKAPKRLIYGAFKLQSGVPSRFSGSRSGTEYTLTISSLQPEDFATYYCLQYVRYPWTFGGGTKVEIK
notes: human IgG4 kappa (HuG4K)
For B7, in assay [4], the concentration for a half-maximal effect (EC50) was found to be 0.482 nM.

B8: Tau01 HNKJ (antibody, V domains shown)
VH: LVQVVESGGGLVQPGGSLKLSCAASGFTFNTYAMNWVRQASGKGLEWVGRIRSKSNNYATYYAASVKGRFTISRDDSKSMAYLQMDSLKTEDTAVYYCVGGGDFWGQGTLVTVSS
VL: DIQMTQSPSSLSASVGDRVTITCRASQEISVYLGWYQQKPGKAPKRLIYGAFSLQSGVPSRFSGSRSGTEFTLTISSLQPEDFATYYCLQYVRYPWTFGGGTKVEIK
notes: human IgG4 kappa (HuG4K)
B8: the response in assay [12] was half-maximal at 2.56 nM (EC50).

B9: Tau01 HNKG (antibody, V domains shown)
VH: LVQVVESGGGLVQPGGSLKLSCAASGFTFNTYAMNWVRQASGKGLEWVGRIRSKSNNYATYYAASVKGRFTISRDDSKSMAYLQMDSLKTEDTAVYYCVGGGDFWGQGTLVTVSS
VL: DIQMTQSPSSLSASVGDRVTITCRASQEISVYLGWYQQKPGKAPKRLIYGAFTLQSGVPSRFSGSRSGTEFTLTISSLQPEDFATYYCLQYVRYPWTFGGGTKVEIK
notes: human IgG4 kappa (HuG4K)
B9 showed a half-maximal effective concentration (EC50) in assay [12] of 1.08 nM.

B10: Tau01 HOKA (antibody, V domains shown)
VH: LVQVVESGGGLVQPGGSLKLSCAASGFTFNTYAMNWVRQASGKGLEWVARIRSKSNNYATYYAASVKGRFTISRDDSKSMAYLQMDSLKTEDTAVYYCVGGGDFWGQGTLVTVSS
VL: DIQMTQSPSSLSASVGDRVTITCRASQEISVYLGWYQQKPGKAPKRLIYGAFKLQSGVPSRFSGSRSGTEFTLTISSLQPEDFATYYCLQYVRYPWTFGGGTKVEIK
notes: human IgG4 kappa (HuG4K)
Regarding B10, the concentration giving a half-maximal response (EC50) in assay [4] stood at 0.389 nM.

B11: Tau01 HMKE HuG4k (antibody, V domains shown)
VH: LVQLVESGGGLVQPGGSLKLSCAASGFTFNTYAMNWVRQASGKGLEWVARIRSKSNNYATYYAASVKGRFTISRDDSKSMAYLQMDSLKTEDTAVYYCVGGGDFWGQGTLVTVSS
VL: DIQMTQSPSSLSASVGDRVTITCRASQEISVYLGWFQQKPGKAPKRLIYGAFKLQSGVPSRFSGSRSGTEFTLTISSLQPEDFATYYCLQYVRYPWTFGGGTKVEIK
notes: human IgG4 kappa (HuG4K); also called KMKE
Regarding B11, in assay [5], binding was characterised by a dissociation constant (Kd) of 0.0201 nM and the koff stood at 0.00283 s⁻¹. The same molecule yielded a koff in assay [6] of 0.000953 s⁻¹. This molecule also displayed a Kslow in assay [7] of 0.000883. Further, the binding result in [8] is “no binding”. For the same molecule, in assay [9], the half-maximal effective concentration (EC50 (read off the curve)) is ~0.8 nM. Also, the EC50 in assay [10] was 0.437 nM and 0.532 nM. In assay [11], this molecule yielded a dissociation constant Kd of 0.02 nM, a koff of 0.00283 s⁻¹ and an on-rate (kon) of 1.41e+08 M⁻¹ s⁻¹.

B12: Tau01 HCKC (antibody, V domains shown)
VH: LVQLVESGGGLVQPGGSLKLSCAASGFTFNTYAMNWVRQASGKGLEWVGRIRSKSNNYATYYAASVKGRFTISRDDSKSMAYLQMDSLKTEDTAVYYCVGGGDFWGQGTLVTVSS
VL: DIQMTQSPSSLSASVGDRVTITCRASQEISVYLSWFQQKPGKAPKRLIYGAFKLQSGVPSRFSGSRSGTEYTLTISSLQPEDFATYYCLQYVRYPWTFGGGTKVEIK
notes: human IgG4 kappa (HuG4K)
For B12, the concentration for a half-maximal effect (EC50) in assay [1] is 1.34 nM; in [3] it was 1.57 nM.
